Molecular target: T1, His-CTNNBL1(Δ1–76) (UniProt Q8WYA6 77-563)
T1 sequence (looked up): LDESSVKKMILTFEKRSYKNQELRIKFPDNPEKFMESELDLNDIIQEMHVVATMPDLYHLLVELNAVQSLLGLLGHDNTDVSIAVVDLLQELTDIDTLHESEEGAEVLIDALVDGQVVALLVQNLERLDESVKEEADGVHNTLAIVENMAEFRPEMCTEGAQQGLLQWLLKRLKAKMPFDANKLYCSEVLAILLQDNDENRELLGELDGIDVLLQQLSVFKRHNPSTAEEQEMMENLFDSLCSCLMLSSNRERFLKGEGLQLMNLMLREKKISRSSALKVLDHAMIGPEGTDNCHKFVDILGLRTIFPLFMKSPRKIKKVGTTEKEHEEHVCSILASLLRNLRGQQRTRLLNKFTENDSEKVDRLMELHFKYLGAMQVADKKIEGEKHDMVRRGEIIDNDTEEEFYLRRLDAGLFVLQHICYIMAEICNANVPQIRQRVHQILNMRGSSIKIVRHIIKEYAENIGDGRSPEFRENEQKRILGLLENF
Assay: ITC

- dH1 (site 1): -1.48 ± 0.11 kcal/mol
- dH2 (site 2): -3.28 ± 0.15 kcal/mol
Binder: KKRKRKR [CDC5L NLS3 peptide]
